Experimental data from patent publication US20200199244A1 (published 2020).
Residue numbers refer to the chain shown, from its start. “And” between values parts separate entries of the source, which are not always exact repeats. Equal entries are not always repeated. Blank lines part the entries; values can stand above or below the binder they belong to.

Key:
human CD40 = human CD40 (human, UniProt P25942 21-277); test: cell-based or functional assay
Macaca fascicularis CD40 = target: T1, Macaca fascicularis CD40 (Macaca fascicularis (cynomolgus monkey), UniProt P25942 21-277 (human entry)); test: cell-based or functional assay
T1 chain: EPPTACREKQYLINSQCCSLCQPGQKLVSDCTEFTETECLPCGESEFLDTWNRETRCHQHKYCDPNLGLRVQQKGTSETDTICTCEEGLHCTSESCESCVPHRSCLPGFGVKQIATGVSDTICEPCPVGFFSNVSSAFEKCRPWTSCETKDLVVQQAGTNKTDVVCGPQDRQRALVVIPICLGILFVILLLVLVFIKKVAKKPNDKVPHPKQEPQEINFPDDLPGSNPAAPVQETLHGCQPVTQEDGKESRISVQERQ

[1] = target: T2, biotinylated human CD40 (BMS) (human, UniProt P25942 21-193, limits assumed, biotinylated (sites not given)); test: BIAcore SPR, immobilised biotinylated human CD40, 1:1 fit;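 note: dAbs passed as doubling dilutions over CD40 chip at 25 °C in HBS-EP running buffer, 300 s dissociation, traces double-referenced against blank flow cell and buffer injection, global Langmuir fit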
T2 construct: Ligand immobilised on the streptavidin BIAcore chip

- hIZCD40L-driven Human B Cell Proliferation EC50 (human CD40): 287 nM
- hIZCD40L-driven Cyno B Cell Proliferation EC50 (Macaca fascicularis CD40): 918 nM
B3: BMS3h-287 (other)
VH: EVQLLESGGGLVQPGGSLRLSCAASGFTFTNYRMSWVRQAPGKGLEWVSAIDDLGVSTYYADSVKGRFTISRDNSKNTLYLQMNSLRAEDTAVYYCAKWRLKNSQPTDFDYWGQGTLVTVSS

- hIZCD40L-driven Human B Cell Proliferation EC50 (human CD40): 306 nM
- hIZCD40L-driven Cyno B Cell Proliferation EC50 (Macaca fascicularis CD40): > 7000 nM
B10: BMS3h-296 (other)
VH: EVQLLESGGGLVQPGGSLRLSCAASGFTFGAYPMYWVRQAPGKGLEWVSSIHKDGRITYYADSVKGRFTISRDNSKNTLYLQMNSLRAEDTAVYYCAKQGTPVDGFDYWGQGTLVTVSS

- hIZCD40L-driven Cyno B Cell Proliferation EC50 (Macaca fascicularis CD40): > 7000 nM
B11: BMS3h-274 (other)
VH: EVQLLESGGGLVQPGGSLRLSCAASGFTFDSYAMGWARQAPGKGLEWVSAIGAKGLSTYYADSVKGRFTISRDNSKNTLYLQMNSLRAEDTAVYYCAKAARGKFDYWGQGTLVTVSS

- hIZCD40L-driven Human B Cell Proliferation EC50 (human CD40): > 7000 nM
- hIZCD40L-driven Cyno B Cell Proliferation EC50 (Macaca fascicularis CD40): > 7000 nM
B12: BMS3h-240 (other)
VH: EVQLLESGGGLVQPGGSLRLSCAASGFTFWVYDMRWVRQAPGKGLEWVSTISATGVHTYYADSVKGRFTISRDNSKNTLYLQMNSLRAEDTAVYYCAKYPPAGRFDYWGQGTLVTVSS

- CHO-hCD40L-driven DC Activation IL-12 EC50 (human CD40): 1490 nM and > 2000 nM
- hIZCD40L-driven Human B Cell Proliferation EC50 (human CD40): 184 nM
- hIZCD40L-driven Cyno B Cell Proliferation EC50 (Macaca fascicularis CD40): > 7000 nM
B13: BMS3h-233 (other)
VH: EVQLLESGGGLVQPGGSLRLSCAASGFTFAHYNMRWVRQAPGKGLEWVSTITKTGFRTYYADSVKGRFTISRDNSKNTLYLQMNSLRAEDTAVYYCAKAGQFDFDYWGQGTLVTVSS

- CHO-hCD40L-driven DC Activation IL-12 EC50 (human CD40): 704 nM
- hIZCD40L-driven Human B Cell Proliferation EC50 (human CD40): 135 nM
- hIZCD40L-driven Cyno B Cell Proliferation EC50 (Macaca fascicularis CD40): > 7000 nM
B15: BMS3h-257 (other)
VH: EVQLLESGGGLVQPGGSLRLSCAASGFTFQNYQMAWVRQAPGKGLEWVSTISGTGKNTYYADSVKGRFTISRDNSKNTLYLQMNSLRAEDTAVYYCAKTPQNYFSVRRFDYWGQGTLVTVSS

- hIZCD40L-driven Human B Cell Proliferation EC50 (human CD40): 648 nM
- hIZCD40L-driven Cyno B Cell Proliferation EC50 (Macaca fascicularis CD40): 838 nM
B16: BMS3h-309 (other)
VH: EVQLLESGGGLVQPGGSLRLSCAASGFTFSGHDMSWVRQAPGKGLEWVSAISPHGTHTYYADSVKGRFTISRDNSKNTLYLQMNSLRAEDTAVYYCAKGIRGWIGHDTQPFDYWGQGTLVTVSS

- hIZCD40L-driven Human B Cell Proliferation EC50 (human CD40): 1100 nM
- hIZCD40L-driven Cyno B Cell Proliferation EC50 (Macaca fascicularis CD40): > 7000 nM
B17: BMS3h-312 (other)
VH: EVQLLESGGGLVQPGGSLRLSCAASGFTFDDEKMLWVRQAPGKGLEWVSSISVSGLHTYYADSVKGRFTISRDNSKNTLYLQMNSLRAEDTAVYYCAKEEAGSWSFDYWGQGTLVTVSS

- hIZCD40L-driven Human B Cell Proliferation EC50 (human CD40): 157 nM
- hIZCD40L-driven Cyno B Cell Proliferation EC50 (Macaca fascicularis CD40): > 7000 nM
B18: BMS3h-275 (other)
VH: EVQLLESGGGLVQPGGSLRLSCAASGFTFTRYQMGWVRQAPGKGLEWVSVINVWGSSTYYADSVKGRFTISRDNSKNTLYLQMNSLRAEDTAVYYCAKMSGKFAYWGQGTLVTVSS

- hIZCD40L-driven Human B Cell Proliferation EC50 (human CD40): 328 nM
- hIZCD40L-driven Cyno B Cell Proliferation EC50 (Macaca fascicularis CD40): > 7000 nM
B19: BMS3h-231 (other)
VH: EVQLLESGGGLVQPGGSLRLSCAASGFTFSAYNMWWARQAPGKGLEWVSWINSTGSRTYYADSVKGRFTISRDNSKNTLYLQMNSLRAEDTAVYYCAKNWHRGRFDYWGQGTLVTVSS

- hIZCD40L-driven Human B Cell Proliferation EC50 (human CD40): 16 nM
- hIZCD40L-driven Cyno B Cell Proliferation EC50 (Macaca fascicularis CD40): 15 nM
B27: BMS3h-217-23 (other)
VL: DIQMTQSPSSLSASVGDRVTITCRASHFIGSLLSWYQVKPGKAPKLLITYGSLLQSGVPSRFSGSGSGTDFTLTISSLQPEDFATYYCGQGVLWPATFGQGTTVEIKR

The next lines start with the binder.

B1: BMS3h-198 (other)
VH: EVQLLESGGGLVQPGGSLRLSCAASGFTFAGYEMWWVRQAPGKGLERVSAISGSGGSTYYADSVKGRFTISRDDSKNTLYLQMNSLRAEDTAVYYCAKDPYSFDYWGQGTLVTVSS
- hIZCD40L-driven Human B Cell Proliferation EC50 (human CD40): 554 nM
- hIZCD40L-driven Cyno B Cell Proliferation EC50 (Macaca fascicularis CD40): > 7000 nM

B2: BMS3h-43 (other)
VH: EVQLLESGGGLVQPGGSLRLSCTASGFTFNMYEMSWVRQAPGKGLEWVSGISRRGFTTYYADSVKGRFTISRDNSKNTLYLQMNSLRAEDTAVYYCAKEPITYAMRYARFDYWGQGTLVTVSS
notes: domain antibody (dAb): single human VH domain
- Kd [1]: 2100 nM
- koff [1]: 0.0031 s⁻¹
- kon [1]: 1400 M⁻¹ s⁻¹

B4: BMS3h-131 (other)
VL: DIQMTQSPSSLSASVGDRVTITCRANSSILWALAWYQQKPGKAPKLLIESSSGLQSGVPSRFSGSGSGTDFTLTISSLQPEDFATYYCVQNAGWPGTFGQGTKVEIKR
notes: domain antibody (dAb): single human V kappa domain
- Kd [1]: 930 nM
- koff [1]: 0.022 s⁻¹
- kon [1]: 24000 M⁻¹ s⁻¹

B5: BMS3h-197 (other)
VH: EVQLLESGGGLVQPGGSLRLSCAASGFTFGSAAMDWVRQAPGKGLEWVSSINDMGSNTYYADSVKGRFTISRDNSKNTLYLQMNSLRAEDTAVYYCAKQGGRFDYWGQGTLVTVSS
notes: as for B2
- Kd [1]: 180 nM
- koff [1]: 0.014 s⁻¹
- kon [1]: 81000 M⁻¹ s⁻¹

B6: BMS3h-107 (other)
VH: EVQLLESGGGLVQPGGSLRLSCAASGFTFSGYDMQWVRQAPGKGLEWVSTISASGVFTYYADSVKGRFTTSRDNSKNTLYLQMNSLRAEDTAVYYCAKYPNRFALNNFDYWGQGTLVTVSS
notes: as for B2
- Kd [1]: 850 nM
- koff [1]: 0.17 s⁻¹
- kon [1]: 200000 M⁻¹ s⁻¹

B7: BMS3h-202 (other)
VH: EVQLLESGGGLVQPGGSLRLSCAASGFTFPTAEMVWVRQAPGKGLEWVSSISASGGSTYYADSVKGRFTISRDNSKNTLYLQMNSLRAEDTAVYYCAKEPVSYVATFDYWGQGTLVTVSS
- hIZCD40L-driven Human B Cell Proliferation EC50 (human CD40): 6400 nM
- hIZCD40L-driven Cyno B Cell Proliferation EC50 (Macaca fascicularis CD40): > 7000 nM

B8: BMS3h-202 (other)
VH: B7 VH
notes: as for B2
- Kd [1]: 2000 nM
- koff [1]: 0.0035 s⁻¹
- kon [1]: 1700 M⁻¹ s⁻¹

B9: BMS3h-202-1 (other)
VH: B7 VH with V35L, Q39K
- hIZCD40L-driven Human B Cell Proliferation EC50 (human CD40): 192 nM
- hIZCD40L-driven Cyno B Cell Proliferation EC50 (Macaca fascicularis CD40): > 7000 nM

B14: BMS3h-193-25 (other)
VL: DIQMTQSPSSLSASVGDRVTITCRASQTIERRLNWYQQKPGKAPRLLIYLATRLQSGVPSRFSGSGSGTDFTLTISSLQPEDFATYYCHQYESPPLTFGQGTKVEIKR
- hIZCD40L-driven Human B Cell Proliferation EC50 (human CD40): 303 nM
- hIZCD40L-driven Cyno B Cell Proliferation EC50 (Macaca fascicularis CD40): 2200 nM

B20: BMS3h-106 (other)
VH: EVQLLESGGGLVQPGGSLRLSCAASGFTFSTYHMQWVRQAPGKGLEWVSMIDADGLGTYYADSVKGRFTISRDNSKNTLYLQMNSLRAEDTAVYYCAKPGPQFGQFDYWGQGTLVTVSS
notes: as for B2
- Kd [1]: 350 nM
- koff [1]: 0.046 s⁻¹
- kon [1]: 130000 M⁻¹ s⁻¹

B21: BMS3h-217-1 (other)
VL: B27 VL with D1N, S31T, S34T, V38H, T103K
- hIZCD40L-driven Human B Cell Proliferation EC50 (human CD40): 45 nM
- hIZCD40L-driven Cyno B Cell Proliferation EC50 (Macaca fascicularis CD40): 35 nM

B22: BMS3h-217-14 (other)
VL: B27 VL with M4L, S31T, V38Q, P44T, A96P, T103K
- hIZCD40L-driven Human B Cell Proliferation EC50 (human CD40): 26 nM
- hIZCD40L-driven Cyno B Cell Proliferation EC50 (Macaca fascicularis CD40): 8 nM

B23: BMS3h-217-5 (other)
VL: B27 VL with S10F, G30A, S31T, V38Q, A96P, T103K
- hIZCD40L-driven Cyno B Cell Proliferation EC50 (Macaca fascicularis CD40): 15 nM

B24: BMS3h-217-15 (other)
VL: B27 VL with S12Y, A25V, S31T, V38Q, T74S, A96P, T103K, R108Q
- hIZCD40L-driven Human B Cell Proliferation EC50 (human CD40): 47 nM
- hIZCD40L-driven Cyno B Cell Proliferation EC50 (Macaca fascicularis CD40): 20 nM

B25: BMS3h-217-6 (other)
VL: B27 VL with S31T, V38Q, P44T, A96P, T103K
- hIZCD40L-driven Human B Cell Proliferation EC50 (human CD40): 11 nM
- hIZCD40L-driven Cyno B Cell Proliferation EC50 (Macaca fascicularis CD40): 10 nM

B26: BMS3h-217-4 (other)
VL: B27 VL with G30A, S31T, V38Q, A96P, T103K
- hIZCD40L-driven Cyno B Cell Proliferation EC50 (Macaca fascicularis CD40): 27 nM

B28: BMS3h-217-16 (other)
VL: B27 VL with S31T, V38Q, G41R, A96P, T103K
- CHO-hCD40L-driven DC Activation IL-12 EC50 (human CD40): 1120 nM
- hIZCD40L-driven Human B Cell Proliferation EC50 (human CD40): 5 nM
- hIZCD40L-driven Cyno B Cell Proliferation EC50 (Macaca fascicularis CD40): 7 nM

B29: BMS3h-217-2 (other)
VL: B27 VL with S31T, V38Q, G41R, Q79H, A96P, T103K
- CHO-hCD40L-driven DC Activation IL-12 EC50 (human CD40): 335 nM
- hIZCD40L-driven Human B Cell Proliferation EC50 (human CD40): 8 nM
- hIZCD40L-driven Cyno B Cell Proliferation EC50 (Macaca fascicularis CD40): 7 nM

B30: BMS3h-217-8 (other)
VL: B27 VL with S31T, V38H, T103K
- hIZCD40L-driven Human B Cell Proliferation EC50 (human CD40): 33 nM
- hIZCD40L-driven Cyno B Cell Proliferation EC50 (Macaca fascicularis CD40): 14 nM
